These binders were tested against CD3ε homodimer protein (human, UniProt P07766 23-126, limits assumed) (assay: SPR, immobilized CD3ε homodimer;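 also: biacore T200 surface plasmon resonance at 25 °C, antibody variants flowed as analytes over amine-coupled CD3ε homodimer on a CM4 chip, variant binding amount divided by that of GLS3000 antibody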).
Sequence of CD3ε homodimer protein (P07766 23-126 limits assumed): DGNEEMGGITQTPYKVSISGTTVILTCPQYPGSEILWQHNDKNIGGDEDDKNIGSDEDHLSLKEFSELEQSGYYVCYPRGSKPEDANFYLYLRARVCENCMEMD
Method: Each one-amino acid altered form constructed, expressed, and purified in the paragraph (6-2) was evaluated using Biacore T200 (GE Healthcare Japan Corp.). An appropriate amount of CD3ε homodimer protein was immobilized onto Sensor chip CM4 (GE Healthcare Japan Corp.) by the amine coupling method. Then, the antibody having an appropriate concentration was injected thereto as an analyte and allowed to interact with the CD3ε homodimer protein on the sensor chip. Then, the sensor chip was regenerated by the injection of 10 mmol/L glycine-HCl (pH 1.5). The assay was conducted at 25° C., and HBS-EP+ (GE Healthcare Japan Corp.) was used as a running buffer. […] Each parameter was calculated using Biacore T200 Evaluation Software (GE Healthcare Japan Corp.).
Specifically, when the amount of the GLS3000-containing antibody bound was defined as X and the amount of the L chain one-amino acid altered form bound was defined as Y, a value of Z (ratio of amounts bound)=Y/X was used.

ratio of amounts bound (vs GLS3000)	Binder
0.77	GLS3000 S56D (antibody, name in Kabat numbering, V domains shown, one-arm format as m2) VH: QVQLVESGGGVVQPGRSLRLSCAASGFTFSNAWMHWVRQAPGKGLEWVAQIKAKSNNYATYYAESVKGRFTISRDDSKNSLYLQMNSLKTEDTAVYYCRYVHYGAYYGVDAWGQGTTVTVSS VL: DIVMTQSPLSLPVTPGEPASISCRSSQSLVHSNRNTYLHWYQQKPGQAPRLLIYKVSNRFDGVPDRFSGSGSGTDFTLKISRVEAEDVGVYYCGQGTQVPYTFGQGTKLEIK
1.38	GLS3000 S56W (antibody, name in Kabat numbering, V domains shown, one-arm format as m2) VH: QVQLVESGGGVVQPGRSLRLSCAASGFTFSNAWMHWVRQAPGKGLEWVAQIKAKSNNYATYYAESVKGRFTISRDDSKNSLYLQMNSLKTEDTAVYYCRYVHYGAYYGVDAWGQGTTVTVSS VL: DIVMTQSPLSLPVTPGEPASISCRSSQSLVHSNRNTYLHWYQQKPGQAPRLLIYKVSNRFWGVPDRFSGSGSGTDFTLKISRVEAEDVGVYYCGQGTQVPYTFGQGTKLEIK
0.97	GLS3000 S56T (antibody, name in Kabat numbering, V domains shown, one-arm format as m2) VH: QVQLVESGGGVVQPGRSLRLSCAASGFTFSNAWMHWVRQAPGKGLEWVAQIKAKSNNYATYYAESVKGRFTISRDDSKNSLYLQMNSLKTEDTAVYYCRYVHYGAYYGVDAWGQGTTVTVSS VL: DIVMTQSPLSLPVTPGEPASISCRSSQSLVHSNRNTYLHWYQQKPGQAPRLLIYKVSNRFTGVPDRFSGSGSGTDFTLKISRVEAEDVGVYYCGQGTQVPYTFGQGTKLEIK
0.99	GLS3000 S56I (antibody, name in Kabat numbering, V domains shown, one-arm format as m2) VH: QVQLVESGGGVVQPGRSLRLSCAASGFTFSNAWMHWVRQAPGKGLEWVAQIKAKSNNYATYYAESVKGRFTISRDDSKNSLYLQMNSLKTEDTAVYYCRYVHYGAYYGVDAWGQGTTVTVSS VL: DIVMTQSPLSLPVTPGEPASISCRSSQSLVHSNRNTYLHWYQQKPGQAPRLLIYKVSNRFIGVPDRFSGSGSGTDFTLKISRVEAEDVGVYYCGQGTQVPYTFGQGTKLEIK
1.05	GLS3000 S56M (antibody, name in Kabat numbering, V domains shown, one-arm format as m2) VH: QVQLVESGGGVVQPGRSLRLSCAASGFTFSNAWMHWVRQAPGKGLEWVAQIKAKSNNYATYYAESVKGRFTISRDDSKNSLYLQMNSLKTEDTAVYYCRYVHYGAYYGVDAWGQGTTVTVSS VL: DIVMTQSPLSLPVTPGEPASISCRSSQSLVHSNRNTYLHWYQQKPGQAPRLLIYKVSNRFMGVPDRFSGSGSGTDFTLKISRVEAEDVGVYYCGQGTQVPYTFGQGTKLEIK
0.92	GLS3000 S56G (antibody, name in Kabat numbering, V domains shown, one-arm format as m2) VH: QVQLVESGGGVVQPGRSLRLSCAASGFTFSNAWMHWVRQAPGKGLEWVAQIKAKSNNYATYYAESVKGRFTISRDDSKNSLYLQMNSLKTEDTAVYYCRYVHYGAYYGVDAWGQGTTVTVSS VL: DIVMTQSPLSLPVTPGEPASISCRSSQSLVHSNRNTYLHWYQQKPGQAPRLLIYKVSNRFGGVPDRFSGSGSGTDFTLKISRVEAEDVGVYYCGQGTQVPYTFGQGTKLEIK
0.23	GLS3000 T31D (antibody, name in Kabat numbering, V domains shown, one-arm format as m2) VH: QVQLVESGGGVVQPGRSLRLSCAASGFTFSNAWMHWVRQAPGKGLEWVAQIKAKSNNYATYYAESVKGRFTISRDDSKNSLYLQMNSLKTEDTAVYYCRYVHYGAYYGVDAWGQGTTVTVSS VL: DIVMTQSPLSLPVTPGEPASISCRSSQSLVHSNRNDYLHWYQQKPGQAPRLLIYKVSNRFSGVPDRFSGSGSGTDFTLKISRVEAEDVGVYYCGQGTQVPYTFGQGTKLEIK
1.36	GLS3000 S56R (antibody, name in Kabat numbering, V domains shown, one-arm format as m2) VH: QVQLVESGGGVVQPGRSLRLSCAASGFTFSNAWMHWVRQAPGKGLEWVAQIKAKSNNYATYYAESVKGRFTISRDDSKNSLYLQMNSLKTEDTAVYYCRYVHYGAYYGVDAWGQGTTVTVSS VL: DIVMTQSPLSLPVTPGEPASISCRSSQSLVHSNRNTYLHWYQQKPGQAPRLLIYKVSNRFRGVPDRFSGSGSGTDFTLKISRVEAEDVGVYYCGQGTQVPYTFGQGTKLEIK
0.97	GLS3000 T31I (antibody, name in Kabat numbering, V domains shown, one-arm format as m2) VH: QVQLVESGGGVVQPGRSLRLSCAASGFTFSNAWMHWVRQAPGKGLEWVAQIKAKSNNYATYYAESVKGRFTISRDDSKNSLYLQMNSLKTEDTAVYYCRYVHYGAYYGVDAWGQGTTVTVSS VL: DIVMTQSPLSLPVTPGEPASISCRSSQSLVHSNRNIYLHWYQQKPGQAPRLLIYKVSNRFSGVPDRFSGSGSGTDFTLKISRVEAEDVGVYYCGQGTQVPYTFGQGTKLEIK
0.95	GLS3000 S56P (antibody, name in Kabat numbering, V domains shown, one-arm format as m2) VH: QVQLVESGGGVVQPGRSLRLSCAASGFTFSNAWMHWVRQAPGKGLEWVAQIKAKSNNYATYYAESVKGRFTISRDDSKNSLYLQMNSLKTEDTAVYYCRYVHYGAYYGVDAWGQGTTVTVSS VL: DIVMTQSPLSLPVTPGEPASISCRSSQSLVHSNRNTYLHWYQQKPGQAPRLLIYKVSNRFPGVPDRFSGSGSGTDFTLKISRVEAEDVGVYYCGQGTQVPYTFGQGTKLEIK
1.04	GLS3000 S56Q (antibody, name in Kabat numbering, V domains shown, one-arm format as m2) VH: QVQLVESGGGVVQPGRSLRLSCAASGFTFSNAWMHWVRQAPGKGLEWVAQIKAKSNNYATYYAESVKGRFTISRDDSKNSLYLQMNSLKTEDTAVYYCRYVHYGAYYGVDAWGQGTTVTVSS VL: DIVMTQSPLSLPVTPGEPASISCRSSQSLVHSNRNTYLHWYQQKPGQAPRLLIYKVSNRFQGVPDRFSGSGSGTDFTLKISRVEAEDVGVYYCGQGTQVPYTFGQGTKLEIK
1.02	GLS3000 S56L (antibody, name in Kabat numbering, V domains shown, one-arm format as m2) VH: QVQLVESGGGVVQPGRSLRLSCAASGFTFSNAWMHWVRQAPGKGLEWVAQIKAKSNNYATYYAESVKGRFTISRDDSKNSLYLQMNSLKTEDTAVYYCRYVHYGAYYGVDAWGQGTTVTVSS VL: DIVMTQSPLSLPVTPGEPASISCRSSQSLVHSNRNTYLHWYQQKPGQAPRLLIYKVSNRFLGVPDRFSGSGSGTDFTLKISRVEAEDVGVYYCGQGTQVPYTFGQGTKLEIK
1.05	GLS3000 S56H (antibody, name in Kabat numbering, V domains shown, one-arm format as m2) VH: QVQLVESGGGVVQPGRSLRLSCAASGFTFSNAWMHWVRQAPGKGLEWVAQIKAKSNNYATYYAESVKGRFTISRDDSKNSLYLQMNSLKTEDTAVYYCRYVHYGAYYGVDAWGQGTTVTVSS VL: DIVMTQSPLSLPVTPGEPASISCRSSQSLVHSNRNTYLHWYQQKPGQAPRLLIYKVSNRFHGVPDRFSGSGSGTDFTLKISRVEAEDVGVYYCGQGTQVPYTFGQGTKLEIK
0.49	GLS3000 T31E (antibody, name in Kabat numbering, V domains shown, one-arm format as m2) VH: QVQLVESGGGVVQPGRSLRLSCAASGFTFSNAWMHWVRQAPGKGLEWVAQIKAKSNNYATYYAESVKGRFTISRDDSKNSLYLQMNSLKTEDTAVYYCRYVHYGAYYGVDAWGQGTTVTVSS VL: DIVMTQSPLSLPVTPGEPASISCRSSQSLVHSNRNEYLHWYQQKPGQAPRLLIYKVSNRFSGVPDRFSGSGSGTDFTLKISRVEAEDVGVYYCGQGTQVPYTFGQGTKLEIK
1.46	GLS3000 S56K (antibody, name in Kabat numbering, V domains shown, one-arm format as m2) VH: QVQLVESGGGVVQPGRSLRLSCAASGFTFSNAWMHWVRQAPGKGLEWVAQIKAKSNNYATYYAESVKGRFTISRDDSKNSLYLQMNSLKTEDTAVYYCRYVHYGAYYGVDAWGQGTTVTVSS VL: DIVMTQSPLSLPVTPGEPASISCRSSQSLVHSNRNTYLHWYQQKPGQAPRLLIYKVSNRFKGVPDRFSGSGSGTDFTLKISRVEAEDVGVYYCGQGTQVPYTFGQGTKLEIK
1.46	GLS3000 S56Y (antibody, name in Kabat numbering, V domains shown, one-arm format as m2) VH: QVQLVESGGGVVQPGRSLRLSCAASGFTFSNAWMHWVRQAPGKGLEWVAQIKAKSNNYATYYAESVKGRFTISRDDSKNSLYLQMNSLKTEDTAVYYCRYVHYGAYYGVDAWGQGTTVTVSS VL: DIVMTQSPLSLPVTPGEPASISCRSSQSLVHSNRNTYLHWYQQKPGQAPRLLIYKVSNRFYGVPDRFSGSGSGTDFTLKISRVEAEDVGVYYCGQGTQVPYTFGQGTKLEIK
1.32	GLS3000 S56F (antibody, name in Kabat numbering, V domains shown, one-arm format as m2) VH: QVQLVESGGGVVQPGRSLRLSCAASGFTFSNAWMHWVRQAPGKGLEWVAQIKAKSNNYATYYAESVKGRFTISRDDSKNSLYLQMNSLKTEDTAVYYCRYVHYGAYYGVDAWGQGTTVTVSS VL: DIVMTQSPLSLPVTPGEPASISCRSSQSLVHSNRNTYLHWYQQKPGQAPRLLIYKVSNRFFGVPDRFSGSGSGTDFTLKISRVEAEDVGVYYCGQGTQVPYTFGQGTKLEIK
0.95	GLS3000 S56V (antibody, name in Kabat numbering, V domains shown, one-arm format as m2) VH: QVQLVESGGGVVQPGRSLRLSCAASGFTFSNAWMHWVRQAPGKGLEWVAQIKAKSNNYATYYAESVKGRFTISRDDSKNSLYLQMNSLKTEDTAVYYCRYVHYGAYYGVDAWGQGTTVTVSS VL: DIVMTQSPLSLPVTPGEPASISCRSSQSLVHSNRNTYLHWYQQKPGQAPRLLIYKVSNRFVGVPDRFSGSGSGTDFTLKISRVEAEDVGVYYCGQGTQVPYTFGQGTKLEIK
1.04	GLS3000 T31K (antibody, name in Kabat numbering, V domains shown, one-arm format as m2) VH: QVQLVESGGGVVQPGRSLRLSCAASGFTFSNAWMHWVRQAPGKGLEWVAQIKAKSNNYATYYAESVKGRFTISRDDSKNSLYLQMNSLKTEDTAVYYCRYVHYGAYYGVDAWGQGTTVTVSS VL: DIVMTQSPLSLPVTPGEPASISCRSSQSLVHSNRNKYLHWYQQKPGQAPRLLIYKVSNRFSGVPDRFSGSGSGTDFTLKISRVEAEDVGVYYCGQGTQVPYTFGQGTKLEIK
0.92	GLS3000 S56N (antibody, name in Kabat numbering, V domains shown, one-arm format as m2) VH: QVQLVESGGGVVQPGRSLRLSCAASGFTFSNAWMHWVRQAPGKGLEWVAQIKAKSNNYATYYAESVKGRFTISRDDSKNSLYLQMNSLKTEDTAVYYCRYVHYGAYYGVDAWGQGTTVTVSS VL: DIVMTQSPLSLPVTPGEPASISCRSSQSLVHSNRNTYLHWYQQKPGQAPRLLIYKVSNRFNGVPDRFSGSGSGTDFTLKISRVEAEDVGVYYCGQGTQVPYTFGQGTKLEIK
0.71	GLS3000 S56E (antibody, name in Kabat numbering, V domains shown, one-arm format as m2) VH: QVQLVESGGGVVQPGRSLRLSCAASGFTFSNAWMHWVRQAPGKGLEWVAQIKAKSNNYATYYAESVKGRFTISRDDSKNSLYLQMNSLKTEDTAVYYCRYVHYGAYYGVDAWGQGTTVTVSS VL: DIVMTQSPLSLPVTPGEPASISCRSSQSLVHSNRNTYLHWYQQKPGQAPRLLIYKVSNRFEGVPDRFSGSGSGTDFTLKISRVEAEDVGVYYCGQGTQVPYTFGQGTKLEIK
